The source of these data is the supplement of paper PMC7125110.

First the molecules themselves.
B1: glmS ribozyme (parent)
chain: AUAAAAGCGCCAGAACUACAGAAAUGUAGUUGACGAGGAGGAGGUUUAUCGAAUUUUCGGCGGAUGCCUCCAAA

± gives the standard error. For part of these data: Fewer inactive variants are shown than the library holds.

Settings in all cases: with glucosamine-6-phosphate
In series [1] the parent is B1. Description: kcat; higher = faster cleavage; RNA array. A digest of the protocol:
(§1)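 A hybridised Cy3 probe tracked barcoded ribozyme variants, transcribed in situ by E. coli RNA polymerase on sequenced MiSeq chips, at 37 °C. The variants received 40 μM to 10 mM glucosamine-6-phosphate in HEPES/KCl/Mg(OAc)2 buffer. kobs came from decay fits and kcat and KM from weighted Michaelis–Menten fits.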

Variants of B1 are the subject of series [2]. Description: KM; higher = weaker cofactor use; RNA array. A digest of the protocol:
as §1

Variants of B1 are the subject of series [3]. Description: self-cleavage kobs at 40 uM GlcN6P; higher = faster cleavage; RNA array. A digest of the protocol:
as §1

In series [4] the parent is B1. Description: self-cleavage kobs at 640 uM GlcN6P; higher = faster cleavage; RNA array. A digest of the protocol: as §1
The variants in series [5] derive from B1. Description: self-cleavage kobs at 2500 uM GlcN6P; higher = faster cleavage; RNA array. A digest of the protocol: as §1
Series [6] covers variants of B1. Put plainly: self-cleavage kobs at 10000 uM GlcN6P; higher = faster cleavage; RNA array. The procedure, abridged:
as §1

The variants in series [7] derive from B1. Put plainly: self-cleavage kobs at 160 uM GlcN6P; higher = faster cleavage; RNA array. A digest of the protocol: as §1

For G32A G41U A52U, the kcat with glucosamine-6-phosphate [1] is less than 1e-05 s⁻¹. In addition, the KM in the series with glucosamine-6-phosphate [2] came to 1010 ± 120 µM. Further, the “self-cleavage kobs at 40 uM GlcN6P” value with glucosamine-6-phosphate [3] is less than 1e-05 s⁻¹. In addition, the “self-cleavage kobs at 640 uM GlcN6P” value in the series with glucosamine-6-phosphate [4] is less than 1e-05 s⁻¹.
Take A42U C71A: the kcat with glucosamine-6-phosphate [1] stood at 0.000146 ± 7.1e-05 s⁻¹. Moreover, the “self-cleavage kobs at 2500 uM GlcN6P” value with glucosamine-6-phosphate [5] is 3.16e-05 ± 8.6e-06 s⁻¹. The “self-cleavage kobs at 10000 uM GlcN6P” value with glucosamine-6-phosphate [6] stood at 8.25e-05 ± 2.2e-05 s⁻¹.
Take A14C C58G: the kcat in the series with glucosamine-6-phosphate [1] came to 0.000165 ± 6.6e-05 s⁻¹. The “self-cleavage kobs at 640 uM GlcN6P” value with glucosamine-6-phosphate [4] came to 3.92e-05 ± 1e-05 s⁻¹. Also, the “self-cleavage kobs at 2500 uM GlcN6P” value with glucosamine-6-phosphate [5] came to 4.23e-05 ± 8.3e-06 s⁻¹. Besides, the “self-cleavage kobs at 10000 uM GlcN6P” value with glucosamine-6-phosphate [6] turned out to be 0.000108 ± 1.2e-05 s⁻¹.
A12C G43A: in the series with glucosamine-6-phosphate [1], the kcat stood at 6.99e-05 ± 1.2e-05 s⁻¹. Also, the KM with glucosamine-6-phosphate [2] was 1870 ± 800 µM. Moreover, the “self-cleavage kobs at 2500 uM GlcN6P” value with glucosamine-6-phosphate [5] came to 3.76e-05 ± 8.6e-06 s⁻¹. Also, the “self-cleavage kobs at 10000 uM GlcN6P” value with glucosamine-6-phosphate [6] came out at 6.33e-05 ± 1.9e-05 s⁻¹.
Take C10U C34A C50A G51U C70A: the kcat with glucosamine-6-phosphate [1] was 5.4e-05 ± 1.3e-05 s⁻¹. Further, the “self-cleavage kobs at 10000 uM GlcN6P” value with glucosamine-6-phosphate [6] was 7.55e-05 ± 2.9e-05 s⁻¹.
As to U31G U47G, in the series with glucosamine-6-phosphate [1], the kcat is 0.00226 ± 0.00055 s⁻¹. In addition, in the series with glucosamine-6-phosphate [2], the Michaelis constant (KM) amounted to 1880 ± 720 µM. The “self-cleavage kobs at 40 uM GlcN6P” value with glucosamine-6-phosphate [3] came to 7.25e-05 ± 1.9e-05 s⁻¹. Moreover, in the series with glucosamine-6-phosphate [7], the “self-cleavage kobs at 160 uM GlcN6P” value is 0.000127 ± 3.3e-05 s⁻¹. In the series with glucosamine-6-phosphate [4], the “self-cleavage kobs at 640 uM GlcN6P” value is 0.000663 ± 0.00011 s⁻¹. Also, the “self-cleavage kobs at 2500 uM GlcN6P” value in the series with glucosamine-6-phosphate [5] was 0.0016 ± 0.00031 s⁻¹. In addition, the “self-cleavage kobs at 10000 uM GlcN6P” value in the series with glucosamine-6-phosphate [6] came out at 0.00176 ± 0.00028 s⁻¹.
As for C11A A39C, the kcat in the series with glucosamine-6-phosphate [1] amounted to 3.87e-05 ± 5.2e-06 s⁻¹. Also, the “self-cleavage kobs at 2500 uM GlcN6P” value in the series with glucosamine-6-phosphate [5] came to 4.76e-05 ± 1.5e-05 s⁻¹. In addition, the “self-cleavage kobs at 10000 uM GlcN6P” value with glucosamine-6-phosphate [6] is 3.53e-05 ± 7.7e-06 s⁻¹.
C16G G41A: in the series with glucosamine-6-phosphate [1], the kcat came to 9.56e-05 ± 1.7e-05 s⁻¹. In the series with glucosamine-6-phosphate [7], the “self-cleavage kobs at 160 uM GlcN6P” value is less than 1e-05 s⁻¹. Also, the “self-cleavage kobs at 2500 uM GlcN6P” value in the series with glucosamine-6-phosphate [5] was determined as 7.9e-05 ± 1.8e-05 s⁻¹. Also, the “self-cleavage kobs at 10000 uM GlcN6P” value with glucosamine-6-phosphate [6] worked out at 7.96e-05 ± 1.2e-05 s⁻¹.
Consider U54C U56C, for which the kcat with glucosamine-6-phosphate [1] is 0.0062 ± 0.0012 s⁻¹. In the series with glucosamine-6-phosphate [2], the KM turned out to be 4050 ± 1000 µM. Also, in the series with glucosamine-6-phosphate [3], the “self-cleavage kobs at 40 uM GlcN6P” value is 7.75e-05 ± 1.4e-05 s⁻¹. The “self-cleavage kobs at 160 uM GlcN6P” value in the series with glucosamine-6-phosphate [7] amounted to 0.000223 ± 3.3e-05 s⁻¹. In the series with glucosamine-6-phosphate [4], the “self-cleavage kobs at 640 uM GlcN6P” value was 0.00084 ± 0.00013 s⁻¹. Besides, the “self-cleavage kobs at 2500 uM GlcN6P” value with glucosamine-6-phosphate [5] came to 0.002 ± 0.00042 s⁻¹. In addition, the “self-cleavage kobs at 10000 uM GlcN6P” value with glucosamine-6-phosphate [6] is 0.00471 ± 0.00069 s⁻¹.
On to U54C U56G, for which, in the series with glucosamine-6-phosphate [1], the kcat was 0.0154 ± 0.0051 s⁻¹. Further, the KM with glucosamine-6-phosphate [2] was determined as 2680 ± 1100 µM. In addition, the “self-cleavage kobs at 40 uM GlcN6P” value with glucosamine-6-phosphate [3] is 0.000282 ± 4.7e-05 s⁻¹. Besides, the “self-cleavage kobs at 160 uM GlcN6P” value with glucosamine-6-phosphate [7] stood at 0.000649 ± 0.00019 s⁻¹. In the series with glucosamine-6-phosphate [4], the “self-cleavage kobs at 640 uM GlcN6P” value worked out at 0.0032 ± 0.0011 s⁻¹. Also, the “self-cleavage kobs at 10000 uM GlcN6P” value with glucosamine-6-phosphate [6] came out at 0.0133 ± 0.0027 s⁻¹.
Take U57A A64U: the kcat in the series with glucosamine-6-phosphate [1] was less than 1e-05 s⁻¹. Further, the “self-cleavage kobs at 40 uM GlcN6P” value with glucosamine-6-phosphate [3] is less than 1e-05 s⁻¹. The “self-cleavage kobs at 10000 uM GlcN6P” value in the series with glucosamine-6-phosphate [6] was less than 1e-05 s⁻¹.
Regarding G37A U69A, the kcat in the series with glucosamine-6-phosphate [1] worked out at 7.14e-05 ± 8.5e-06 s⁻¹. For the same variant, the KM with glucosamine-6-phosphate [2] is 7590 ± 2000 µM. For the same variant, the “self-cleavage kobs at 10000 uM GlcN6P” value with glucosamine-6-phosphate [6] came out at 4.06e-05 ± 8.5e-06 s⁻¹.
For U31G U69G, in the series with glucosamine-6-phosphate [1], the kcat came to 5.43e-05 ± 8.8e-06 s⁻¹. The “self-cleavage kobs at 160 uM GlcN6P” value with glucosamine-6-phosphate [7] is 9.12e-05 ± 1.7e-05 s⁻¹. Further, in the series with glucosamine-6-phosphate [4], the “self-cleavage kobs at 640 uM GlcN6P” value worked out at 5.73e-05 ± 1.2e-05 s⁻¹. In addition, in the series with glucosamine-6-phosphate [5], the “self-cleavage kobs at 2500 uM GlcN6P” value came out at 5.24e-05 ± 7.9e-06 s⁻¹. Also, the “self-cleavage kobs at 10000 uM GlcN6P” value with glucosamine-6-phosphate [6] stood at 4.43e-05 ± 1e-05 s⁻¹.
With G44U A52U, the kcat in the series with glucosamine-6-phosphate [1] stood at 1.54e-05 ± 1.1e-06 s⁻¹. In addition, the “self-cleavage kobs at 40 uM GlcN6P” value with glucosamine-6-phosphate [3] is less than 1e-05 s⁻¹. Besides, in the series with glucosamine-6-phosphate [4], the “self-cleavage kobs at 640 uM GlcN6P” value was less than 1e-05 s⁻¹.
As to G29C A42G, the kcat in the series with glucosamine-6-phosphate [1] was found to be 0.00279 ± 0.00031 s⁻¹. Also, in the series with glucosamine-6-phosphate [2], the KM was determined as 1790 ± 300 µM. Moreover, in the series with glucosamine-6-phosphate [3], the “self-cleavage kobs at 40 uM GlcN6P” value came to 6.95e-05 ± 1e-05 s⁻¹. In the series with glucosamine-6-phosphate [7], the “self-cleavage kobs at 160 uM GlcN6P” value is 0.000209 ± 4e-05 s⁻¹. Further, the “self-cleavage kobs at 640 uM GlcN6P” value with glucosamine-6-phosphate [4] amounted to 0.000724 ± 0.00013 s⁻¹. Further, the “self-cleavage kobs at 2500 uM GlcN6P” value with glucosamine-6-phosphate [5] worked out at 0.00144 ± 0.00025 s⁻¹. In addition, in the series with glucosamine-6-phosphate [6], the “self-cleavage kobs at 10000 uM GlcN6P” value came out at 0.00253 ± 0.00032 s⁻¹.
With A48G A53U, the kcat in the series with glucosamine-6-phosphate [1] was found to be 6.17e-05 ± 9.3e-06 s⁻¹. Besides, the “self-cleavage kobs at 2500 uM GlcN6P” value with glucosamine-6-phosphate [5] came to 4.65e-05 ± 1.4e-05 s⁻¹. The “self-cleavage kobs at 10000 uM GlcN6P” value in the series with glucosamine-6-phosphate [6] was determined as 5.16e-05 ± 7.9e-06 s⁻¹.
For the variant C11U A64G, the kcat in the series with glucosamine-6-phosphate [1] came to 0.00227 ± 0.00061 s⁻¹. For the same variant, in the series with glucosamine-6-phosphate [2], the Michaelis-Menten constant (KM) is 1370 ± 580 µM. The “self-cleavage kobs at 40 uM GlcN6P” value with glucosamine-6-phosphate [3] turned out to be 8.94e-05 ± 9.3e-06 s⁻¹. Moreover, the “self-cleavage kobs at 160 uM GlcN6P” value with glucosamine-6-phosphate [7] is 0.0002 ± 2.5e-05 s⁻¹. Besides, the “self-cleavage kobs at 640 uM GlcN6P” value in the series with glucosamine-6-phosphate [4] is 0.000741 ± 6.4e-05 s⁻¹. Also, the “self-cleavage kobs at 2500 uM GlcN6P” value with glucosamine-6-phosphate [5] was determined as 0.00108 ± 0.00014 s⁻¹. Besides, the “self-cleavage kobs at 10000 uM GlcN6P” value with glucosamine-6-phosphate [6] is 0.00247 ± 0.00021 s⁻¹.
